Results taken from US20250326839A1 (VIGIL NEUROSCIENCE, published 2025).

B1: V14 (antibody, V domains shown)
VH: EVQLVQSGAEVKKPGESLKISCKGSGYSFGSYWIAWVRQMPGKGLEWMGIIYPGDQDTRYSPSFQGQVTISADKSISTAYLQWSSLKASDTAMYFCARGRTFYYDSSDYFDYWGQGTLVTVSS
VL: DIQMTQSPSSVSASVGDRVTITCRASQGISSWLAWYQQKPGKAPKLLIYAASRLQNGVPSRFSGSGSGTDFTLTISSLQPEDFATYFCQQADSFPRTFGQGTKLEIK
notes: also called 6E7 variant V14
B2: V27 (antibody, V domains shown)
VH: EVQLVQSGAEVKKPGESLKISCKGSGYSFTSYWIAWVRQMPGKGLEWMGIIYPGDSDTRYAPSFQGQVTISADKSISTAYLQWSSLKASDTAMYFCVRSRTFYYDSSDYFDYWGQGTLVTVSS
VL: DIQMTQSPSSVSASVGDRVTITCRASQGISSWLAWYQQKPGKAPKLLIYAASSLQRGVPSRFSGSGSGTDFTLTISSLQPEDFATYFCQQADSFPRTFGQGTKLEIK
notes: also called 6E7 variant V27; LV-103/HV-103
B3: V29 (antibody, V domains shown)
VH: EVQLVQSGAEVKKPGESLKISCKGSGYSFKSYWIAWVRQMPGKGLEWMGIIYPGDSDTRYSPSFQGQVTISADKSISTAYLQWSSLKASDTAMYFCARQRTFYYDSSDYFDYWGQGTLVTVSS
VL: DIQMTQSPSSVSASVGDRVTITCRASQGISSWLAWYQQKPGKAPKLLIYAASSLQNGVPSRFSGSGSGTDFTLTISSLQPEDFATYFCQQADSFPRTFGQGTKLEIK
notes: also called 6E7 variant V29
B4: V28 (antibody, V domains shown)
VH: EVQLVQSGAEVKKPGESLKISCKGSGYSFQSYWIAWVRQMPGKGLEWMGTIYPGDSDTRYSPSFQGQVTISADKSISTAYLQWSSLKASDTAMYFCARQRTFFYDSSDYFDYWGQGTLVTVSS
VL: DIQMTQSPSSVSASVGDRVTITCRASQGISSWLAWYQQKPGKAPKLLIYAASSLQSGVPSRFSGSGSGTDFTLTISSLQPEDFATYFCQQADSLPRTFGQGTKLEIK
notes: also called 6E7 variant V28
B5: V17 (antibody, V domains shown)
VH: EVQLVQSGAEVKKPGESLKISCKGSGYSFGSYWIAWVRQMPGKGLEWMGIIYPGDSDTRYSPSFQGQVTISADKSISTAYLQWSSLKASDTAMYFCARSRTFYYDSSDYFDYWGQGTLVTVSS
VL: DIQMTQSPSSVSASVGDRVTITCRASQGISSWLAWYQQKPGKAPKLLIYAASSRQNGVPSRFSGSGSGTDFTLTISSLQPEDFATYFCQQADSSPRTFGQGTKLEIK
notes: also called 6E7 variant V17
B6: V16 (antibody, V domains shown)
VH: EVQLVQSGAEVKKPGESLKISCKGSGYSMTSYWIAWVRQMPGKGLEWMGIIYPGDGDTRYSPSFQGQVTISADKSISTAYLQWSSLKASDTAMYFCARSRTFYYDSSDYFDYWGQGTLVTVSS
VL: DIQMTQSPSSVSASVGDRVTITCRASQGISSWLAWYQQKPGKAPKLLIYAASNLQNGVPSRFSGSGSGTDFTLTISSLQPEDFATYFCQQADSFPRTFGQGTKLEIK
notes: also called 6E7 variant V16
B7: V38 (antibody, V domains shown)
VH: EVQLVQSGAEVKKPGESLKISCKGSGYSFGSYWIAWVRQMPGKGLEWMGIIYPGDSDVRYSPSFQGQVTISADKSISTAYLQWSSLKASDTAMYFCARQRTFYYDSSDYFDYWGQGTLVTVSS
VL: DIQMTQSPSSVSASVGDRVTITCRASQGISSWLAWYQQKPGKAPKLLIYAASSRQNGVPSRFSGSGSGTDFTLTISSLQPEDFATYFCQQADSHPRTFGQGTKLEIK
notes: also called 6E7 variant V38
B8: V24 (antibody, V domains shown)
VH: EVQLVQSGAEVKKPGESLKISCKGSGYSFTSYWIAWVRQMPGKGLEWMGIIYPGDSDVRYSPSFQGQVTISADKSISTAYLQWSSLKASDTAMYFCARSRTFYYDSSDYFDYWGQGTLVTVSS
VL: DIQMTQSPSSVSASVGDRVTITCRASQGISSWLAWYQQKPGKAPKLLIYAASSLQKGVPSRFSGSGSGTDFTLTISSLQPEDFATYFCQQADSFPHTFGQGTKLEIK
notes: also called 6E7 variant V24
B9: V39 (antibody, V domains shown)
VH: EVQLVQSGAEVKKPGESLKISCKGSGYSFGSYWIAWVRQMPGKGLEWMGIIYPGDSDTRYNPSFQGQVTISADKSISTAYLQWSSLKASDTAMYFCARGRTFYYDSSDYFDYWGQGTLVTVSS
VL: DIQMTQSPSSVSASVGDRVTITCRASQGISSWLAWYQQKPGKAPKLLIYAASSLVNGVPSRFSGSGSGTDFTLTISSLQPEDFATYFCQQADSSPRTFGQGTKLEIK
notes: also called 6E7 variant V39
B10: V26 (antibody, V domains shown)
VH: EVQLVQSGAEVKKPGESLKISCKGSGYSFTSYWIGWVRQMPGKGLEWMGTIYPGDSDTRYSPSFQGQVTISADKSISTAYLQWSSLKASDTAMYFCARQRTMYYDSSDYFDAWGQGTLVTVSS
VL: DIQMTQSPSSVSASVGDRVTITCRASQGISSWLAWYQQKPGKAPKLLIYAASSLQRGVPSRFSGSGSGTDFTLTISSLQPEDFATYFCQQADSYPRTFGQGTKLEIK
notes: also called 6E7 variant V26
B11: V25 (antibody, V domains shown)
VH: EVQLVQSGAEVKKPGESLKISCKGSGYSFGSYWIAWVRQMPGKGLEWMGLIYPGDSDTRYSPSFQGQVTISADKSISTAYLQWSSLKASDTAMYFCARSRTFYYDSSDYFDYWGQGTLVTVSS
VL: DIQMTQSPSSVSASVGDRVTITCRASQGISSWLAWYQQKPGKAPKLLIYAASSLANGVPSRFSGSGSGTDFTLTISSLQPEDFATYFCQQADSMPRTFGQGTKLEIK
notes: also called 6E7 variant V25
B12: V15 (antibody, V domains shown)
VH: EVQLVQSGAEVKKPGESLKISCKGSGYSFASYWIAWVRQMPGKGLEWMGTIYPGDSDTRYSPSFQGQVTISADKSISTAYLQWSSLKASDTAMYFCARSRTFYYDSSDYFDYWGQGTLVTVSS
VL: DIQMTQSPSSVSASVGDRVTITCRASQGISSWLAWYQQKPGKAPKLLIYAASWLQNGVPSRFSGSGSGTDFTLTISSLQPEDFATYFCQQADSYPRTFGQGTKLEIK
notes: also called 6E7 variant V15
B13: V36 (antibody, V domains shown)
VH: EVQLVQSGAEVKKPGESLKISCKGSGYSFTSYWLAWVRQMPGKGLEWMGIIYPGDSDTRYSPSFQGQVTISADKSISTAYLQWSSLKASDTAMYFCARSRTFYYDSSDYFDYWGQGTLVTVSS
VL: DIQMTQSPSSVSASVGDRVTITCRASQGISSWLAWYQQKPGKAPKLLIYAASSRQNGVPSRFSGSGSGTDFTLTISSLQPEDFATYFCQQADSYPRTFGQGTKLEIK
notes: also called 6E7 variant V36
B14: V37 (antibody, V domains shown)
VH: EVQLVQSGAEVKKPGESLKISCKGSGYSHTSYWIAWVRQMPGKGLEWMGIIYPGDSDTRYSPSFAGQVTISADKSISTAYLQWSSLKASDTAMYFCARSRTFYYDSSDYFDYWGQGTLVTVSS
VL: DIQMTQSPSSVSASVGDRVTITCRASQGISSWLAWYQQKPGKAPKLLIYAASSLQWGVPSRFSGSGSGTDFTLTISSLQPEDFATYFCQQADSYPRTFGQGTKLEIK
notes: also called 6E7 variant V37

Legend:
human TREM2 [1] = target: T1, human TREM2 (human, UniProt Q9NZC2 19-174, limits assumed); experiment: 2nd screen, 10 nM
T1 construct: also called triggering receptor expressed on myeloid cells 2
T1 sequence: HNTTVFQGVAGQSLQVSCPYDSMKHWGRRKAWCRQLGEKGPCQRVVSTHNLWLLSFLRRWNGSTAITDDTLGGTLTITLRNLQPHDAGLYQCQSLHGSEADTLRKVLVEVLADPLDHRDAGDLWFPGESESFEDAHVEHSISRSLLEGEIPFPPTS

human TREM2 [2] = target: T1, human TREM2; experiment: 1st screen, 10 nM Ab
human TREM2 [3] = target: T1, human TREM2; experiment: 2nd screen, 2 nM

Binder | Binding Signal (human TREM2 [1]) | Binding Signal (human TREM2 [2]) | Binding Signal (human TREM2 [3])
B1 | 4.64 fold over 6E7 parental antibody | 4.71 fold over 6E7 parental antibody | 2.57 fold over 6E7 parental antibody
B2 | 5.69 fold over 6E7 parental antibody | 5.5 fold over 6E7 parental antibody | 5.67 fold over 6E7 parental antibody
B3 | 1.67 fold over 6E7 parental antibody | 1.53 fold over 6E7 parental antibody | 0.84 fold over 6E7 parental antibody
B4 | 3.61 fold over 6E7 parental antibody | 3.08 fold over 6E7 parental antibody | 2.63 fold over 6E7 parental antibody
B5 | 5.51 fold over 6E7 parental antibody | 5.37 fold over 6E7 parental antibody | 4.22 fold over 6E7 parental antibody
B6 | 4.04 fold over 6E7 parental antibody | 4.01 fold over 6E7 parental antibody | 3.57 fold over 6E7 parental antibody
B7 | 4.36 fold over 6E7 parental antibody | 4.34 fold over 6E7 parental antibody | 3.44 fold over 6E7 parental antibody
B8 | 2.9 fold over 6E7 parental antibody | 2.64 fold over 6E7 parental antibody | 1.42 fold over 6E7 parental antibody
B9 | 5.81 fold over 6E7 parental antibody | 6.15 fold over 6E7 parental antibody | 5.11 fold over 6E7 parental antibody
B10 | 3.47 fold over 6E7 parental antibody | 3.57 fold over 6E7 parental antibody | 2.83 fold over 6E7 parental antibody
B11 | 4.7 fold over 6E7 parental antibody | 4.23 fold over 6E7 parental antibody | 3.15 fold over 6E7 parental antibody
B12 | 4.78 fold over 6E7 parental antibody | 5.23 fold over 6E7 parental antibody | 4.72 fold over 6E7 parental antibody
B13 | 3.44 fold over 6E7 parental antibody | 3.38 fold over 6E7 parental antibody | 4 fold over 6E7 parental antibody
B14 | 3.49 fold over 6E7 parental antibody | 3.46 fold over 6E7 parental antibody | 3.69 fold over 6E7 parental antibody
